# According to US7056679 (ANTYRA, dated 2006):
# No end group written: not given here.
# B1: DGI-2-20F-PP-F3 (peptide)
# peptide: EGQRVVFLFGALVAGLCWRDRAAAGAPVPYPDPLEPRP
# B2: DGI-2-20F-PP-A82 (peptide)
# peptide: CYLSRLFRSGQGIGQFGHVEAAAGAPVPYPDPLEPRP
# B3: DGI-2-20F-PP-B2 (peptide)
# peptide: RSYPRLCKQKGGVIGRMLPGAAAGAPVPYPDPLEPRP
# B4: DGI-2-20F-P0P-D6 (peptide)
# peptide: GITGLFCLCLRSSQSIAAAGAPVPYPDPLEPRP
# B5: DGI-2-20F-PP-C3 (peptide)
# peptide: LGRTFVWGTCLHLSVSRFGHAAAGAPVPYPDPLEPRP
# B6: DGI-2-20F-PP-A10 (peptide)
# peptide: RRFVRCSVPVALRSAVPVSVAAAGAPVPYPDPLEPRP
# B7: DGI-2-20F-PP-C9 (peptide)
# peptide: YAMSSRECGIRNSGLILSMWAAAGAPVPYPDPLEPRP
# B8: DGI-2-20F-PP-E6 (peptide)
# peptide: EVFVSVWVFRFRVMPVTPGGTAAAGAPVPYPDPLEPRP
# B9: DGI-2-20F-PP-B11 (peptide)
# peptide: VGHLLSRCAHHSPGMGASPYGAAAGAPVPYPDPLEPRP
# B10: DGI-2-20F-PP-C7 (peptide)
# peptide: SSVWATWGSDLRTFGSVGFLAAAGAPVPYPDPLEPRP
# B11: DGI-2-20F-PP-B3 (peptide)
# peptide: RGSLLLTLPRLSGAVGTAYGAAAGAPVPYPDPLEPRP
# B12: DGI-2-20F-PP-D4 (peptide)
# peptide: DRHRAFVAEGLDGFRHSTGVAAAGAPVPYPDPLEPRP
# B13: DGI-2-20F-PP-C11 (peptide)
# peptide: TPVAISIPAGVCSTSVCGRDAAAGAPVPYPDPLEPRP
# B14: DGI-2-20F-PP-A22 (peptide)
# peptide: VCSGGKGTWLEIPDRVRSSTAAAGAPVPYPDPLEPRP
# B15: DGI-2-20F-PP-H10 (peptide)
# peptide: GRAGTSMTELVAWGFVQRVGAAAGAPVPYPDPLEPRP
# B16: DGI-2-20R-3-A11 (peptide)
# peptide: WAASCFWGHVALGCGRNGQG
# modifications: not fully specified (bridges); cysteine pairing not given here
# notes: on M13 phage, pIII fusion with E-tag
# B17: DGI-2-20F-3-B5 (peptide)
# peptide: RERWGTAWNLWTEGVVDVRP
# notes: as for B16
# Biological target: T1, DGI-2 polypeptide (UniProt Q15004 1-111, limits assumed)
# T1 construct: Soluble recombinant protein coated at 500 ng/well; vector tag of pIVEX2.3-MCS not described for this construct; also called KIAA0101
# T1 sequence (looked up): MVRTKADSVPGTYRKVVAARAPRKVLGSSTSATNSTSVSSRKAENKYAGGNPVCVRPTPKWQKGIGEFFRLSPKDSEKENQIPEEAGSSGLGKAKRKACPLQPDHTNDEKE
# Assay: phage ELISA
# Method: (§1) For analysis of individual target binders, colonies were picked and phage prepared as described above using helper phage, M13KO7. Ninety-six-well microtiter plates were coated with 500 ng/well of specific target protein, 500 ng/well lactate dehydrogenase (LDH) irrelevant or non-specific target, 500 ng/well of positive control antibody raised against ETAG, and negative control of non-fat milk powder-PBS 2% at 4° C. overnight. Plates were then blocked with 350 microliters/well PBS containing 2% non-fat milk for 1 hr at room temperature. One hundred microliters per well of phage from isolated clones were added and plates were incubated at room temperature for 2 hr after centrifuging samples for 20 minutes at 3500 rpm at 4° C. The phage solution was then removed, and the wells were washed three times with PBS at room temperature. Antibody raised against M13 conjugated to horseradish peroxidase (Pharmacia) was diluted 1:3000 in PBS-Tween and added to each well (100 µl/well). Incubation was for 1 hr at room temperature, followed by washing with PBS-(0.5%) Tween 3 times as described. Color was developed by addition of ABTS solution (100 µl/well; Boehringer, Indianapolis, Ind.). Plates were analyzed at 405 nm. A clone was considered "positive" if the $A405$ of the well was $\geq$2-fold over background.
Binder,DGI-2 (OD),DGI-2/LDH [ratio]
B1,2.6,2.2
B2,2.5,2.3
B3,3.3,2.9
B4,3.3,3.2
B5,5.3,5.1
B6,2.4,2.4
B7,3.5,3.9
B8,3,2.6
B9,2.6,2.7
B10,3,2.6
B11,3.4,3
B12,2.6,2.3
B13,2.4,2.6
B14,3.3,3.1

# Biological target: T2, antibody raised against ETAG
# T2 construct: Coated at 500 ng/well; also called E-tag antibody
# Assay: phage ELISA
# Method: as §1
row,Binder,ETAG (OD)
1,B15,13
2,B1,18.7
3,B2,16.5
4,B3,35.9
5,B4,5.7
6,B5,39.9
7,B6,16.3
8,B7,31.6
9,B8,4.1
10,B9,40.8
11,B10,11
12,B11,11.7
13,B12,44
14,B13,3.2
15,B14,44.1

# Biological target: T3, lactate dehydrogenase (LDH)
# T3 construct: Coated at 500 ng/well as non-specific target; also called LDH polypeptide
# Assay: phage ELISA
# Method: as §1
row,Binder,LDH (OD)
1,B15,0.7
2,B1,1.1
3,B2,1.1
4,B3,1.1
5,B4,1
6,B5,1
7,B6,1
8,B7,0.9
9,B8,1.2
10,B9,1
11,B10,1.1
12,B11,1.1
13,B12,1.1
14,B13,0.9
15,B14,1

# Biological target: T4, DGI-2 (UniProt Q15004 1-111, limits assumed)
# T4 construct: Soluble recombinant DGI-2 made by in vitro translation (RTS, pIVEX2.3-MCS vector) and coated on plates for the ELISA; vector tag not described; also called KIAA0101; DGI-2 polypeptide
# T4 sequence (looked up): T1 sequence (looked up)
# Assay: phage ELISA, coated DGI-2
# Method in brief: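 Phage from individual clones were bound for 2 h at RT to wells coated with 500 ng DGI-2, LDH (non-specific), anti-E-tag antibody (positive control) or milk (negative control). Bound phage were detected with HRP-anti-M13 and ABTS at A405; positive clones gave ≥2-fold signal over background.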
row,Binder,binding result
1,B16,binds
2,B17,binds
